Drawing on paper PMC10397247, this text covers interaction score for six molecules.

Holding throughout (test): two-hybrid library CCNG1;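 further: natural log of median RNA to DNA barcode read ratio; higher means stronger binding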
The target of one assay is T1, 4H741-bN.
T1 chain: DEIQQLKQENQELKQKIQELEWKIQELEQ

The next assay deals with T2, O2-bS.
T2 chain: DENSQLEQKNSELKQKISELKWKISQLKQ

Another assay addresses T3, 4H2692-bH.
T3 chain: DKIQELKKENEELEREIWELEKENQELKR

Another assay addresses T4, 4H2717-bH.
T4 chain: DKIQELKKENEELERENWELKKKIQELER

Another assay concerns the target T5, 4H2839-bH.
T5 chain: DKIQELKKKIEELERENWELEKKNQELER

The next assay deals with T6, 4H2915-bH.
T6 chain: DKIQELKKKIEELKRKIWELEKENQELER

A further assay has as its target T7, 4H3057-bH.
T7 chain: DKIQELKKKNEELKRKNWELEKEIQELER

The target of the next assay is T8, 4H319-bH.
T8 chain: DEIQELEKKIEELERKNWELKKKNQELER

In a further assay the target is T9, 4H3277-bH.
T9 chain: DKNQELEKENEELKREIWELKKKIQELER

For another assay, the target named is T10, 4H348-bH.
T10 chain: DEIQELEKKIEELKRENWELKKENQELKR

For another assay, the target named is T11, 4H40-bH.
T11 chain: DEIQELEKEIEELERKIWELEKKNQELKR

For a further assay, the target named is T12, 4H477-bH.
T12 chain: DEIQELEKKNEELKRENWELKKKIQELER

The target of a further assay is T13, 4H492-bH.
T13 chain: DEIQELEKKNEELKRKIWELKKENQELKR

A further assay has as its target T14, 4H741-bH.
T14 chain: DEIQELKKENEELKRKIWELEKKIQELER

The target in the next assay is T15, 4H3112-bN.
T15 chain: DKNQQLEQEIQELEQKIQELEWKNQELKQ

A further assay addresses T16, 4H3129-bH.
T16 chain: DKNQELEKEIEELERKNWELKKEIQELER

In the next assay the target is T17, 4H3172-bN.
T17 chain: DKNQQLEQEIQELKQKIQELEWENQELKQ

A further assay concerns the target T18, 4H3185-bN.
T18 chain: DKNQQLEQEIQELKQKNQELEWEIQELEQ

The target in the next assay is T19, 4H331-bN.
T19 chain: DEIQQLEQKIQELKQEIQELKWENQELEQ

Another assay deals with T20, 4H3354-bN.
T20 chain: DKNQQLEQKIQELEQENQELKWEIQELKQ

In the next assay the target is T21, 4H338-bN.
T21 chain: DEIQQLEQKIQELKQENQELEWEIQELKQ

For another assay, the target named is T22, 4H3427-bN.
T22 chain: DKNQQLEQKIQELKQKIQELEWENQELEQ

For a further assay, the target named is T23, 4H346-bN.
T23 chain: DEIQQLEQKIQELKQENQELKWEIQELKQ

For the next assay, the target named is T24, 4H3782-bN.
T24 chain: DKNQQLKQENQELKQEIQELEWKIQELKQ

Another assay concerns the target T25, 4H3817-bH.
T25 chain: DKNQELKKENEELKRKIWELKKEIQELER

The target of another assay is T26, 4H3855-bN.
T26 chain: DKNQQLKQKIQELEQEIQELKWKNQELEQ

The next assay concerns the target T27, 4H3926-bN.
T27 chain: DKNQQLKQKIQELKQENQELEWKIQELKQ

Another assay has as its target T28, 4H4001-bN.
T28 chain: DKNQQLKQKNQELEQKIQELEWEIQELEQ

Another assay addresses T29, 4H4073-bN.
T29 chain: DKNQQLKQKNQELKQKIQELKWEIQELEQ

Another assay concerns the target T30, 4H454-bN.
T30 chain: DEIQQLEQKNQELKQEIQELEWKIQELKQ

The next assay has as its target T31, 4H457-bN.
T31 chain: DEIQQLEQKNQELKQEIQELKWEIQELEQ

Another assay concerns the target T32, 4H568-bN.
T32 chain: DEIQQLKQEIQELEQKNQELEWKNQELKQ

The next assay deals with T33, 4H575-bN.
T33 chain: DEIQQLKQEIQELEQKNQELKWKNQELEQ

A further assay addresses T34, 4H607-bN.
T34 chain: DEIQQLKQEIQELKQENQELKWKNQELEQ

The next assay has as its target T35, 4H683-bN.
T35 chain: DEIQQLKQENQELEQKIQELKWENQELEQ

For the next assay, the target named is T36, 4H687-bN.
T36 chain: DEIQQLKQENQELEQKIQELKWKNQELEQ

Another assay deals with T37, 4H717-bN.
T37 chain: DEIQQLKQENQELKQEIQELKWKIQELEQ

Another assay deals with T38, 4H72-bN.
T38 chain: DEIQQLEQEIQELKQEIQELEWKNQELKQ

A further assay addresses T39, 4H754-bN.
T39 chain: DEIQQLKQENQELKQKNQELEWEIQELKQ

In the next assay the target is T40, 4H780-bN.
T40 chain: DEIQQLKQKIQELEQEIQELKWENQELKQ

In a further assay the target is T41, 4H797-bN.
T41 chain: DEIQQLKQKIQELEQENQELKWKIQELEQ

Another assay concerns the target T42, 4H855-bN.
T42 chain: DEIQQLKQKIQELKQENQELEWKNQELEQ

In another assay the target is T43, 4H883-bN.
T43 chain: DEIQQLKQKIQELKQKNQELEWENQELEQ

A further assay has as its target T44, 4H908-bN.
T44 chain: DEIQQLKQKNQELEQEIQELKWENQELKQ

The target in a further assay is T45, 4H918-bN.
T45 chain: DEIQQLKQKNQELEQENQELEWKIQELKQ

In a further assay the target is T46, 4H953-bN.
T46 chain: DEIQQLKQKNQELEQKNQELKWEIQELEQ

Another assay has as its target T47, 4H967-bN.
T47 chain: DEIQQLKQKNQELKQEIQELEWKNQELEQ

The next assay concerns the target T48, 4H968-bN.
T48 chain: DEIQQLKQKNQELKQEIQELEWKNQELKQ

The target in another assay is T49, 4H3961-bA.
T49 chain: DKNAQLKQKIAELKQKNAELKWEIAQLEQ
To be noted: mean of both orientations.

In the next assay the target is T50, 4H470-bA.
T50 chain: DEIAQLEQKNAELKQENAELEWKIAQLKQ

A further assay addresses T51, 4H2697-bH.
T51 chain: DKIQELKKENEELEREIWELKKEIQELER

The next assay has as its target T52, 4H3189-bH.
T52 chain: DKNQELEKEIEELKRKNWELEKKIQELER

Another assay deals with T53, 4H331-bH.
T53 chain: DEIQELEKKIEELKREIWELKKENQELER

Another assay deals with T54, 4H3606-bH.
T54 chain: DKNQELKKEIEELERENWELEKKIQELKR

Another assay addresses T55, 4H370-bH.
T55 chain: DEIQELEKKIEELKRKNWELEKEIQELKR

Another assay addresses T56, 4H3782-bH.
T56 chain: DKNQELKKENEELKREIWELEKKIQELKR

The next assay deals with T57, 4H3843-bH.
T57 chain: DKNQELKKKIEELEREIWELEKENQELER

In the next assay the target is T58, 4H4001-bH.
T58 chain: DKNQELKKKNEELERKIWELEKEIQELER

In another assay the target is T59, 4H462-bH.
T59 chain: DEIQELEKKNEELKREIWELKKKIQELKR

Another assay deals with T60, 4H568-bH.
T60 chain: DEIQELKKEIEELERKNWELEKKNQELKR

The target of the next assay is T61, 4H607-bH.
T61 chain: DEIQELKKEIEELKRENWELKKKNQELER

For a further assay, the target named is T62, 4H687-bH.
T62 chain: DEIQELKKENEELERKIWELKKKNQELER

Another assay has as its target T63, 4H72-bH.
T63 chain: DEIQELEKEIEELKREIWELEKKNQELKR

Another assay has as its target T64, 4H797-bH.
T64 chain: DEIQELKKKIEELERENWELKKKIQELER

In another assay the target is T65, 4H883-bH.
T65 chain: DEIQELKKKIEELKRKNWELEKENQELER

The next assay deals with T66, 4H918-bH.
T66 chain: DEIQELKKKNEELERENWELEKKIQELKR

The target of another assay is T67, 4H953-bH.
T67 chain: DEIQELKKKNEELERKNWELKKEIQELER

A further assay deals with T68, 4H967-bH.
T68 chain: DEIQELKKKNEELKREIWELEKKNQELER

B1: 4H741-bN (peptide)
chain: DEIQQLKQENQELKQKIQELEWKIQELEQ
In the case of B1, the interaction score with 4H741-bN is 1.19; with O2-bS, -3.38.

B2: 4H2692-bH (peptide)
chain: DKIQELKKENEELEREIWELEKENQELKR
Regarding B2, the interaction score with 4H2692-bH was 0.733; in the assay with 4H2717-bH, -0.125; with 4H2839-bH, -0.447; with 4H2915-bH, 0.971; with 4H3057-bH, -0.0522; in the assay with 4H319-bH, -1.1. The interaction score in the assay with 4H3277-bH is -0.368; in the assay with 4H348-bH, -0.787; with 4H40-bH it was 0.218; in the assay with 4H477-bH it was -0.436; with 4H492-bH, 1.54; with 4H741-bH it was -1.04.

B3: 4H3112-bN (peptide)
chain: DKNQQLEQEIQELEQKIQELEWKNQELKQ
For B3, the interaction score with 4H3112-bN is -0.426; with 4H3129-bH, -0.762; with 4H3172-bN, 0.00481; in the assay with 4H3185-bN it was -1.11; in the assay with 4H331-bN, -0.918; with 4H3354-bN it was 0.377. For the same molecule, the interaction score with 4H338-bN is -0.816; in the assay with 4H3427-bN it was 0.996; with 4H346-bN, 0.282; with 4H3782-bN it was -0.541; with 4H3817-bH, -0.521; in the assay with 4H3855-bN, -0.962. The interaction score with 4H3926-bN is 0.154; with 4H4001-bN, -0.255; with 4H4073-bN it was -0.28; with 4H454-bN, 0.745; with 4H457-bN, -0.526; with 4H568-bN, 0.078. The interaction score in the assay with 4H575-bN is -1.34; in the assay with 4H607-bN, 0.634; with 4H683-bN, 0.347; with 4H687-bN it was -1.66; with 4H717-bN, -1.88; with 4H72-bN it was -0.5. For the same molecule, the interaction score was -1.34 in the assay with 4H754-bN; -0.0911 with 4H780-bN; -0.676 with 4H797-bN; 0.606 with 4H855-bN; 1.54 with 4H883-bN; 0.308 with 4H908-bN. For the same molecule, the interaction score with 4H918-bN was 0.0994; with 4H953-bN it was 0.0741; in the assay with 4H967-bN, -1.11; in the assay with 4H968-bN, -0.158.

B4: 4H3961-bA (peptide)
chain: DKNAQLKQKIAELKQKNAELKWEIAQLEQ
On to B4, for which the figures for the interaction score with 4H3961-bA and in the assay with 4H470-bA were -1.09 and -0.153, respectively.

B5: 4H2697-bH (peptide)
chain: DKIQELKKENEELEREIWELKKEIQELER
In the case of B5, the interaction score with 4H2697-bH was 0.402; with 4H3189-bH it was -0.0723; in the assay with 4H331-bH, 0.0266; with 4H3606-bH, -1.34; in the assay with 4H370-bH it was -0.895; in the assay with 4H3782-bH it was 0.502. The interaction score is -0.103 with 4H3843-bH; -0.578 with 4H4001-bH; -0.915 with 4H462-bH; -1.4 with 4H568-bH; -0.619 with 4H607-bH; -0.768 in the assay with 4H687-bH. Moreover, the interaction score was -1.97 with 4H72-bH; -0.611 with 4H797-bH; -0.628 with 4H883-bH; -0.619 with 4H918-bH; -0.201 with 4H953-bH; 0.26 with 4H967-bH.

B6: 4H470-bA (peptide)
chain: DEIAQLEQKNAELKQENAELEWKIAQLKQ
As for B6, the interaction score with 4H470-bA came out at 0.201.
